Here are results for 29 substances from article PMC5542768, “Structural insight into the activation of a class B G-protein-coupled receptor by peptide hormones in live human cells” (eLife, 2017).

Experiment [1] addresses corticotropin-releasing factor receptor type 1 (CRF1R), wild type (rat) (UniProt P35353).
Experiment [2] concerns the target T1, CRF1R (Rattus norvegicus, UniProt P35353).
T1 construct: all our experimental data are obtained from the intact full-length, fully glycosylated receptor at the membrane of the live cell; expressed in transfected cells; host or cells: HEK293 (transient co-transfection with CRE-luciferase reporter and Renilla plasmid)
T1 sequence (P35353 24-415): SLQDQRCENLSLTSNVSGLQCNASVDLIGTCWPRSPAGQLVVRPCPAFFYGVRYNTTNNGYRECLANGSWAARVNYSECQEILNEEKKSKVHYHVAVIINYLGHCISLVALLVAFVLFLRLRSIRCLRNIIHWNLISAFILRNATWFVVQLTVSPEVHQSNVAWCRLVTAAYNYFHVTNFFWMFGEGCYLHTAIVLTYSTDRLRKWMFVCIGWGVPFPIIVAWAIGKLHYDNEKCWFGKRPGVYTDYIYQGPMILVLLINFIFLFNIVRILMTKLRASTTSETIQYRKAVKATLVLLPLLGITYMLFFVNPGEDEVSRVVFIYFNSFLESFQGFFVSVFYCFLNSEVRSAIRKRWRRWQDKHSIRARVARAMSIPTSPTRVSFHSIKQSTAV
The experiment can be described thus: cAMP accumulation assay via luciferase reporter (ligand alone). As to conditions: for Receptor activation at 100 nM: 100 nM peptide, normalized to either Ucn1 or CRF, HEK293; for Receptor activation at 100 nM / EC50: mean ± s.e.m., at least three independent experiments, each in triplicate; for CRF1R activation / residual activity up to the maximal tested concentration of 100 nM: Figure 1B legend; for CRF1R activation / residual activity up to the maximal tested concentration of 100 nM / EC50 (Figure 1B legend): HEK293, luciferase reporter; for EC50: cAMP level via luciferase reporter, transiently transfected HEK293 cells, 3 hr stimulation at 37°C; for EC50 (Figure 1B legend): agrees with literature data. Type of experiment: cell-based. The source says:
Figure 1. Photo-crosslinking mapping of CRF1R to determine footprints of agonists and antagonists. (A) Sequence alignment of CRF1R peptide ligands. The classification into N-terminus, C-terminus and helical connector is adopted from [Beyermann et al. (2000]). […] In ^dFXCRF(12-41), substitutions of the two native Met residues to Nle and the N-terminal D-amino acid to enhance its stability and potency ([Rivier and Rivier, 2014]). […] The assay measures cAMP accumulation in live HEK293 cells stimulated with serial dilutions of each ligand via a luciferase reporter. Plots are representative mean ± s.e.m. of at least three independent experiments, each run in triplicates. (B) CRF1R activation elicited by each of the ligands used in this study. […] (E) Photo-crosslinking experiments. Transiently transfected 293T cells expressing each Azi-CRF1R mutant (residues replaced by Azi are indicated in the upper row) were incubated with each of the five peptide ligands indicated in the right column, followed by UV irradiation (365 nm). […] To obtain sharper bands, samples were deglycosylated by PNGaseF. The subdivision of transmembrane helices and ECLs is based on the crystal structure of the CRF1R TMD ([Hollenstein et al., 2013]). […] DOI: http://dx.doi.org/10.7554/eLife.27711.002 Figure 1—source data 1. Numerical values of cAMP accumulation assay. The assay measures cAMP accumulation in live HEK293 cells stimulated with serial dilutions of each ligand via a luciferase reporter. Raw luminescence data of the firefly reporter luciferase were normalized to the Renilla control and to 100% activation of agonists. At least three independent experiments were performed per ligand, and each experiment was run in triplicate. Values in the table represent a single measurement. Mean ± s.e.m. of triplicates for one representative experiment are reported in Figure 1B–D. DOI: http://dx.doi.org/10.7554/eLife.27711.003 Figure 1—source data 2. Numerical values of whole-cell ELISA of HA-Azi-CRF1R mutants. Related to Figure 1—figure supplement 1. The absorption was measured at 492 nm. Each data point was obtained as mean of three independent experiments, each performed in triplicate. Mean ± s.e.m. of the means of the triplicates are plotted in Figure 1—figure supplement 1B. DOI: http://dx.doi.org/10.7554/eLife.27711.004 Figure 1—figure supplement 1. Expression profiles of a subset of Azi-CRF1R mutants. […] (A) Whole-cell lysates of 293T cells transiently expressing each Azi-CRF1R mutant were resolved on 10% SDS-PAGE and analyzed by Western blotting using an M2 anti-FLAG-HRP antibody. The Azi mutation site is indicated in the top row. […] (B) Whole-cell ELISA of HA-Azi-CRF1R mutants. The absorptions at 492 nm (OD492) are shown as mean ± s.e.m. obtained from three independent experiments each performed in triplicates and normalized to wild type (wt). The positions replaced by Azi are identical to (A). DOI: http://dx.doi.org/10.7554/eLife.27711.005 [drawing 1]
The day prior to transfection, 6 × 10^6 HEK293 cells were seeded in 10 cm dishes. Cells were co-transfected with 0.5 µg of plasmid encoding the wild-type CRF1R gene under control of a PGK promoter, 5 µg of the reporter construct (humanized PpyRE9 [[Branchini et al., 2010]] firefly luciferase gene driven by a cAMP-responsive element and followed by a PEST sequence), and 0.5 µg of plasmid encoding Renilla luciferase driven by a CMV promoter. Transfection was performed using PEI max as described above. The following day, cells were trypsinized and transferred into a 96-well plate at a density of 180,000 cells per well.

Experiment [3] relates to CRF1R. As to conditions: ref Gulyas et al., 1995; cited from earlier work.

Non-standard residues stand in square brackets, D forms with d. No end group written: not given here. *: point of attachment. Nle = CCCC[C@H](N)C(=O)O; ClAc = O=C(CCl)*

For CRF(9-41) (peptide), the Receptor activation at 100 nM [%] (cAMP accumulation, normalized to Ucn1 or CRF) in experiment [1] came to 4.03%.
As to “CRF(9-41): 33-mer antagonist obtained by N-terminal truncation of the first eight residues of CRF (DLTFHLLREVLEMARAEQLAQQAHSNRKLMEII; ends and bridges not checked; UniProt P06850 162-194, looked up, fragment)”, in experiment [2], the “Receptor activation at 100 nM” value came to 4.03 ± 1.27% and the “CRF1R activation / residual activity up to the maximal tested concentration of 100 nM” value (shortened to “CRF1R activation / residual activity up”) is less than 10%.
Consider “SEEPPISLDLTFHLK(ClAc)REVLE[Nle]ARAEQLAQQAHSNRKL[Nle]EII-NH2 [[Lys(ClAc)^15]- ^XCRF]”, for which the EC50 in experiment [2] amounted to 0.08 ± 0.22 nM.
On the same count and under the same terms, with “SEEPPISLDLTFHLLREVLE[Nle]ARAEQLAQQAHK(ClAc)NRKL[Nle]EII-NH2 [[Lys(ClAc)^33]- ^XCRF]” the figure was 0.04 nM; with “SEEPPISLDLTFHLLRK(ClAc)VLE[Nle]ARAEQLAQQAHSNRKL[Nle]EII-NH2 [[Lys(ClAc)^17]- ^XCRF]”, 0.08 nM.
Substance Ucn1(8-40) (peptide) displayed a Receptor activation at 100 nM [%] (cAMP accumulation, normalized to Ucn1 or CRF) in experiment [1] of 8.2%.
Turning to “Ucn1(8-40): 33-mer N-truncated Ucn1 antagonist, introduced in this work for the first time (DLTFHLLRTLLELARTQSQRERAEQNRIIFDSV; ends and bridges not checked; UniProt P55089 90-122, looked up, fragment)”, in experiment [2], the “Receptor activation at 100 nM” value is recorded as 8.20 ± 2.76% and the “CRF1R activation / residual activity up” value is on record as less than 10%.
As for “Urocortin I (DNPSLSIDLTFHLLRTLLELARTQSQRERAEQNRIIFDSVGK) [Ucn1, 40-mer endogenous peptide agonist of CRF1R]”, the “EC50 (Figure 1B legend)” value in experiment [2] is “Sub-nanomolar”.
In turn, “Urocortin I (Ucn1) (from UniProt P55089 83-124) (peptide)” had an EC50 of cAMP accumulation (CRE-luciferase reporter) in HEK293 cells transfected with CRF1R in experiment [1] of 0.16 nM.
With [ClAc^0]-^dFXCRF(12-41) (peptide), the Receptor activation at 100 nM [%] (cAMP accumulation, normalized to Ucn1 or CRF) in experiment [1] was determined as 0.62%.
In experiment [1], “[DPhe^12,Nle^21,38]-CRF(12-41) (peptide)” returned a Receptor activation at 100 nM [%] (cAMP accumulation, normalized to Ucn1 or CRF) of 0.53%.
With “[DPhe^12,Nle^21,38]-CRF(12-41) [^dFXCRF(12-41)]”, in experiment [2], the “Receptor activation at 100 nM” value is listed as 0.53 ± 0.47% and the “CRF1R activation / residual activity up” value is on record as “did not elicit any significant receptor activation”. Further, in experiment [3], the “Binding affinity of CRF1R relative to CRF (lower)” value is ~ 10 fold.
[Lys(ClAc)^13]-^XCRF (peptide): the EC50 of cAMP accumulation (CRE-luciferase reporter) in HEK293 cells transfected with CRF1R in experiment [1] was found to be 0.03 nM.
As to [Lys(ClAc)^13]-^dFXCRF(12-41) (peptide), the Receptor activation at 100 nM [%] (cAMP accumulation, normalized to Ucn1 or CRF) in experiment [1] turned out to be 2.41%.
For [Lys(ClAc)^14]-^dFXCRF(12-41) (peptide), the Receptor activation at 100 nM [%] (cAMP accumulation, normalized to Ucn1 or CRF) in experiment [1] amounted to 1.49%.
As for [Lys(ClAc)^15]-^XCRF (peptide), the EC50 of cAMP accumulation (CRE-luciferase reporter) in HEK293 cells transfected with CRF1R in experiment [1] came out at 0.08 nM.
The substance [Lys(ClAc)^15]-^dFXCRF(12-41) (peptide) gave a Receptor activation at 100 nM [%] (cAMP accumulation, normalized to Ucn1 or CRF) in experiment [1] of 0.39%.
The substance [Lys(ClAc)^16]-^XCRF (peptide) had an EC50 of cAMP accumulation (CRE-luciferase reporter) in HEK293 cells transfected with CRF1R in experiment [1] of 0.2 nM.
As to [Lys(ClAc)^16]-^dFXCRF(12-41) (peptide), in experiment [1], the Receptor activation at 100 nM [%] (cAMP accumulation, normalized to Ucn1 or CRF) turned out to be 1.06%.
On to [Lys(ClAc)^17]-^XCRF (peptide), for which the EC50 of cAMP accumulation (CRE-luciferase reporter) in HEK293 cells transfected with CRF1R in experiment [1] was 0.08 nM.
In experiment [1], [Lys(ClAc)^17]-^dFXCRF(12-41) (peptide) gave a Receptor activation at 100 nM [%] (cAMP accumulation, normalized to Ucn1 or CRF) of 0.31%.
The substance [Lys(ClAc)^18]-^XCRF (peptide) gave an EC50 of cAMP accumulation (CRE-luciferase reporter) in HEK293 cells transfected with CRF1R in experiment [1] of 0.03 nM.
Consider [Lys(ClAc)^18]-^dFXCRF(12-41) (peptide), for which, in experiment [1], the Receptor activation at 100 nM [%] (cAMP accumulation, normalized to Ucn1 or CRF) was found to be 0.59%.
In experiment [1], [Lys(ClAc)^31]-^XCRF (peptide) returned an EC50 of cAMP accumulation (CRE-luciferase reporter) in HEK293 cells transfected with CRF1R of 0.06 nM.
Regarding [Lys(ClAc)^31]-^dFXCRF(12-41) (peptide), in experiment [1], the Receptor activation at 100 nM [%] (cAMP accumulation, normalized to Ucn1 or CRF) was found to be 0.52%.
In experiment [1], [Lys(ClAc)^33]-^XCRF (peptide) registered an EC50 of cAMP accumulation (CRE-luciferase reporter) in HEK293 cells transfected with CRF1R of 0.04 nM.
[Lys(ClAc)^33]-^dFXCRF(12-41) (peptide) registered a Receptor activation at 100 nM [%] (cAMP accumulation, normalized to Ucn1 or CRF) in experiment [1] of 1.85%.
The substance “corticotropin-releasing factor (CRF) (from UniProt P06850 154-196) (peptide)” registered an EC50 of cAMP accumulation (CRE-luciferase reporter) in HEK293 cells transfected with CRF1R in experiment [1] of 0.11 nM.
As to “corticotropin-releasing factor (SEEPPISLDLTFHLLREVLEMARAEQLAQQAHSNRKLMEIIGK) [CRF, 41-mer endogenous peptide agonist of CRF1R]”, the “EC50 (Figure 1B legend)” value in experiment [2] was “Sub-nanomolar”.
